The target of this assay is GST-DNMT1-N (UniProt P26358). The experiment in a line: pull-down; GST-tagged proteins on Glutathione Sepharose beads incubated with acid-extracted core histones from HEK293T cells transfected with FLAG-H3 or FLAG-H2B and UHRF1 (S phase); 25 mM Tris-HCl pH 8.0, 150 mM NaCl, 1% NP-40, 2 mM EDTA, 1 mM DTT, 4 °C, 3 h; WB with anti-FLAG.

For the substance “ubiquitinated FLAG-H2B (from UniProt P0CG48 1-76)”, the fold enrichment of the ubiquitinated histone in the pull-down was 4.9 fold.
The value for “ubiquitinated FLAG-H3 (from UniProt P0CG48 1-76)” was 20 fold.

Source of the values: PMC7445300.
